Eight molecules from patent publication US20140286898A1 (Amgen, published 2014) can be followed below.

In this experiment the target is T1, CD25 (IL-2Rα) on the surface of activated T cells (UniProt P01589 22-272, limits assumed).
T1 construct: whole, on cells; also called cell surface CD25
T1 sequence (looked up): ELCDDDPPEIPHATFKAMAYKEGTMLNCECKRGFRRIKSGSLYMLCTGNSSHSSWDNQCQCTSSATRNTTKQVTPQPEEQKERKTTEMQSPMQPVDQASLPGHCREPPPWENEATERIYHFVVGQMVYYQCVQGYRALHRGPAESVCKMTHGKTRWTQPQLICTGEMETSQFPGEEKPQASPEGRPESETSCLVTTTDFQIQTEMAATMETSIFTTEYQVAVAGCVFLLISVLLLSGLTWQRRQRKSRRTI
Briefly: flow cytometry, binding to CD25 on the surface of activated T cells. Background: A flow cytometer gives signals particle by particle.

B1: HaMut1D (V69A, Q74P, N88D, C125A) (ligand)
chain: APTSSSTKKTQLQLEHLLLDLQMILNGINNYKNPKLTRMLTFKFYMPKKATELKHLQCLEEELKPLEEALNLAPSKNFHLRPRDLISDINVIVLELKGSETTFMCEYADETATIVEFLNRWITFAQSIISTLT
notes: IL-2 mutein without Fc; not shown: C-terminal FLAG and poly-His tag
The term Kd denotes the constant that tells how readily two partners part at equilibrium. Read a high Kd as lower affinity. On to B1, for which the Kd was about 2 nM.

B2: HaMut4D (T37A, V69A, Q74P, N88D, C125A) (ligand)
chain: APTSSSTKKTQLQLEHLLLDLQMILNGINNYKNPKLARMLTFKFYMPKKATELKHLQCLEEELKPLEEALNLAPSKNFHLRPRDLISDINVIVLELKGSETTFMCEYADETATIVEFLNRWITFAQSIISTLT
notes: not shown: C-terminal FLAG and poly-His tag
Take B2: the binding result is listed as “binds”.

B3: HaMut7D (N71R, V69A, Q74P, N88D, C125A) (ligand)
chain: APTSSSTKKTQLQLEHLLLDLQMILNGINNYKNPKLTRMLTFKFYMPKKATELKHLQCLEEELKPLEEALRLAPSKNFHLRPRDLISDINVIVLELKGSETTFMCEYADETATIVEFLNRWITFAQSIISTLT
notes: as for B2
As for B3, the dissociation constant (Kd) was about 0.2 nM.

B4: HaMut3D (K35R, V69A, Q74P, N88D, C125A) (ligand)
chain: APTSSSTKKTQLQLEHLLLDLQMILNGINNYKNPRLTRMLTFKFYMPKKATELKHLQCLEEELKPLEEALNLAPSKNFHLRPRDLISDINVIVLELKGSETTFMCEYADETATIVEFLNRWITFAQSIISTLT
notes: as for B2
As for B4, the binding result is “binds”.

B5: HaMut6D (E68D, V69A, Q74P, N88D, C125A) (ligand)
chain: APTSSSTKKTQLQLEHLLLDLQMILNGINNYKNPKLTRMLTFKFYMPKKATELKHLQCLEEELKPLEDALNLAPSKNFHLRPRDLISDINVIVLELKGSETTFMCEYADETATIVEFLNRWITFAQSIISTLT
notes: as for B2
Consider B5, for which the binding result is reported as “binds”.

B6: HaMut2D (N30S, V69A, Q74P, N88D, C125A) (ligand)
chain: APTSSSTKKTQLQLEHLLLDLQMILNGINSYKNPKLTRMLTFKFYMPKKATELKHLQCLEEELKPLEEALNLAPSKNFHLRPRDLISDINVIVLELKGSETTFMCEYADETATIVEFLNRWITFAQSIISTLT
notes: as for B2
With B6, the binding result is “binds”.

B7: HaMut8D (K35R, K48E, E68D, N88D, C125A) (ligand)
chain: APTSSSTKKTQLQLEHLLLDLQMILNGINNYKNPRLTRMLTFKFYMPEKATELKHLQCLEEELKPLEDVLNLAQSKNFHLRPRDLISDINVIVLELKGSETTFMCEYADETATIVEFLNRWITFAQSIISTLT
notes: as for B2
With B7, the binding result is “binds”.

B8: HaMut5D (K48E, V69A, Q74P, N88D, C125A) (ligand)
chain: APTSSSTKKTQLQLEHLLLDLQMILNGINNYKNPKLTRMLTFKFYMPEKATELKHLQCLEEELKPLEEALNLAPSKNFHLRPRDLISDINVIVLELKGSETTFMCEYADETATIVEFLNRWITFAQSIISTLT
notes: as for B2
As for B8, the binding result is “binds”.
